Results taken from US20190382488A1 (IMAGINAB, published 2019).

How the values were obtained:
[1] = biological target: T1, cell-surface human CD8 (human, UniProt P01732 22-235); experiment: flow cytometry, HPB-ALL cells, Protein L-biotin and streptavidin-APC
T1 construct: the cell is named under assay; also called cellular human CD8; CD8 on PC3-CD8 cells
Method: (§1) Flow cytometry analysis of cys-diabody binding to cell-surface human CD8 on HPB-ALL cells was performed. Cells were stained with respective concentrations of cys-diabody, washed, stained with a secondary Protein L conjugated to Biotin, washed, then stained with a tertiary streptavidin-APC. Analysis was performed with 10,000 events/point in triplicate for each concentration. The results are shown in graph format in FIG. 30A. The graph presents the mean fluorescence intensity (MFI) vs. the log of the concentration (nM). Error bars represent the standard error. The data indicates an EC₅₀ of 0.04 nM.

[2] = biological target: T1, cell-surface human CD8; experiment: flow cytometry on HPB-ALL cells, Protein L-biotin then streptavidin-APC
Method: as §1, with “of cys-diabody (+/−C-terminal cysteine conjugation to Desferoxamine) binding to” for “of cys-diabody binding to”, “in FIG. 30C. The graph” for “in FIG. 30A. The graph”, “of 0.04 nM and 0.06 nM.” for “of 0.04 nM.”

[3] = biological target: T1, cell-surface human CD8; experiment: as above; remark: listed apart in the source
Method: as §1

[4] = biological target: T1, cell-surface human CD8; experiment: flow cytometry on primary human CD8+ T cells, Protein L-biotin then streptavidin-APC
Method: as §1, with “primary human CD8+ T” for “HPB-ALL”, “30B.” for “30A.”, “0.02” for “0.04”

[5] = biological target: T1, cell-surface human CD8; experiment: flow cytometry, primary human CD8+ T cells, Protein L-biotin and streptavidin-APC
Method: as §1, with “primary human CD8+ T” for “HPB-ALL”, “30B.” for “30A.”, “0.02” for “0.04”

T1 sequence (P01732 22-235 limits assumed): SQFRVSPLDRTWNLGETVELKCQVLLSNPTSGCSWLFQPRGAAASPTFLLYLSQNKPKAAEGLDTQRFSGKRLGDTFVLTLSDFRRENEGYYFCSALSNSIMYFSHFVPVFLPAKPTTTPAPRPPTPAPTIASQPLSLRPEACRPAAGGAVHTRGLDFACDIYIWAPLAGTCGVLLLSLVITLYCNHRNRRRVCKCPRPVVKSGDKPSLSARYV

B1: IAb_Cys-Db3b_CD8 (other)
chain: DVQITQSPSSLSASVGDRVTITCRTSRSISQYLAWYQQKPGKVPKLLIYSGSTLQSGVPSRFSGSGSGTDFTLTISSLQPEDVATYYCQQHNENPLTFGGGTKVEIKGGGSGGGGEVQLVESGGGLVQPGGSLRLSCAASGFNIKDTYIHFVRQAPGKGLEWIGRIDPANDNTLYASKFQGKATISADTSKNTAYLQMNSLRAEDTAVYYCGRGYGYYVFDHWGQGTLVTVSSGGC
notes: Cys-diabody homodimer; also called humanized OKT8 cys-diabody VL-8-VH
EC50 [1]: 0.04 nM | EC50 [2]: 0.04 nM | EC50 [3]: 0.04 nM | EC50 [4]: 0.02 nM | EC50 [5]: 0.02 nM
